According to the nanobody polyreactivity screen of Harvey et al. (2022):

Experiment: yeast display, Sf9 membrane polyspecificity reagent, FACS + sequencing; frameworks hold sequencing errors
Outline: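 Nanobodies came from a synthetic yeast display library in Saccharomyces cerevisiae BJ5465, induced with galactose for 36–48 hours and stained for 1 hour at 4 °C with 10% biotinylated, detergent-solubilized Sf9 membrane reagent. Cells were enriched on streptavidin microbeads and then FACS-sorted, with low and high (top ~1%) gates set on anti-HA fluorescence for expression and streptavidin fluorescence for reagent binding. Each polyreactivity label reflects the gate a clone came from. Genes were amplified by colony PCR, sequenced by MiSeq 2 × 250 and filtered by CDR length.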

Sequence: QVQLVESGGGLVQAGGSLRLSCAASGLIIPYYAMGWSRQAPGKERELVAGITSDGSTNYADSVMGRFTISRDNAKIIVYLQMYSLKPVDTAVYYCAKEQGLYSVSPYDYWGQGTQVSVSS
- polyreactivity (PSR sort gate): low polyreactivity

Sequence: QVQLVESGGGLVQAGGSLRLSCAASGLIIRRYAMGWYRQAPGKERELVAAISGSGSSTYYADSVKGRFTISRDNAKNTVYLQMNSLKPEDTAVYDCAAVVLFRRGQVIRVESDYWGQGTQVTVSS
- polyreactivity (PSR sort gate): high polyreactivity

Sequence: QVQLVESGGGLVQAGGSLRLSCAASGLIIRWYAMGWYRQAPGKERELVAAITRAGSTNYADSVKWRFTISRDNAKNTVYLQMNSLKPEDTAVYYCAAVAVELASEYDYWGQGTQVTVSS
- polyreactivity (PSR sort gate): low polyreactivity

Sequence: QVQLVESGGGLVQAGGSLRLSCAASGLIIWLYTMGWYRQAPGKERELVAAIDWSGGSTYYADSVKGRFTISRDNAKNTVYLQMNSLKPEDTAVYYCAADPEPSYRFDYWGQGTQVTVSS
- polyreactivity (PSR sort gate): low polyreactivity

Sequence: QVQLVESGGGLVQAGGSLRLSCAASGLIIYSNAMGWYRQAPRKERELVAAINYSGGRTYYADSVKGRFTISRDNAKNTVYLQMNSLKPEDTAVYYCAARLYGAQRHGGYWGQGTQVTVSS
- polyreactivity (PSR sort gate): high polyreactivity

Sequence: QVQLVESGGGLVQAGGSLRLSCAASGLIIYYYAMGWYRQAPGKERELVAAITWTAGSTSYADSVKGRFTISRDNAKNTVYLQMNSLKPEDTAVYYCAADYRHDTFSNQYDYWGQGTQVTVSS
- polyreactivity (PSR sort gate): low polyreactivity

Sequence: QVQLVESGGGLVQAGGSLRLSCAASGLILHKYAMGWYRQAPGKERELVASINSGANTNYADSVKGRFTISRDNAKNTVYLQMNSLKPEDTAVYYCNASPFTVRYYKYEYWGQGTQVTVSS
- polyreactivity (PSR sort gate): low polyreactivity

Sequence: QVQLVESGGGLVQAGGSLRLSCAASGLILSRNVMGWYRQAPGKERELVAAINWSSGSTYYADSVKGRFTISRDNGKNTVSLQMNSLKPEDTAVYYCAATVFYDAEYDYWGQGSQVTVSS
- polyreactivity (PSR sort gate): high polyreactivity

Sequence: QVQLVESGGGLVQAGGSLRLSCAASGLILSSNAMGWYRQAPGKERELVAAITWDGDRTYADSVKGRFTISRDNAKNTVYLQMNSLKPEDTAVYYCAADKQYSWYDWSYDYWGQGTQVTVSS
- polyreactivity (PSR sort gate): low polyreactivity

Sequence: QVQLVESGGGLVQAGGSLRLSCAASGLILVPNTMGWYRQAPGKERELVAAISYSGGGTYYADSVKGRFTISRDNANNTVYLQMNSLKPEDTAVYYCAAYVKRESAPYGYWGQGTLVTVSS
- polyreactivity (PSR sort gate): low polyreactivity

Sequence: QVQLVESGGGLVQAGGSLRLSCAASGLILVPNTMGWYRQAPGKESELVAAISDSGGGTYYADSVKGRFTISRDNAKNTVYLQMISLKPEDTAVYYCAAYGKRESAPYGYWGQGTQVTVSS
- polyreactivity (PSR sort gate): low polyreactivity

Sequence: QVQLVESGGGLVQAGGSLRLSCAASGLILVYYAMGWYRQAPGKERELVAAITPGGSTKYAESVKGRFTISRDNAKNTVYLQMNSLKPEDTAVYYCNALSGPYWYYVYQSHQDDYWGQGSQVTVSS
- polyreactivity (PSR sort gate): low polyreactivity

Sequence: QVQLVESGGGLVQAGGSLRLSCAASGLILYTYAMGWYRQAPGKERELVAALNSGGRTYSADSVKGRFTISRDNAKNTVYLQMNSLKPEDTAVYYCAADYGSRVRGFNYWGQGTQVTVSS
- polyreactivity (PSR sort gate): low polyreactivity

Sequence: QVQLVESGGGLVQAGGSLRLSCAASGLINYYYAMGWYRQAPGKERELVAAISGSSGASTYYADSVKGRFTISRDNAKNTVYLQMNSLKPEDTAVYYCATPVASVTGYDYWGQGTQVTVSS
- polyreactivity (PSR sort gate): low polyreactivity

Sequence: QVQLVESGGGLVQAGGSLRLSCAASGLISTPNAMGWSRQAPGKERELVASISSRGGSTYYADSVKGRFTISRDNAKNTVYLQMNSLKPEDTAVYYCAADAYRDFYYEYYYWGQGSQVTVSS
- polyreactivity (PSR sort gate): low polyreactivity

Sequence: QVQLVESGGGLVQAGGSLRLSCAASGLISYHYAMGWYRQAPGKERELVASISYTGGSTFYADSVKGRFTISRDNAKNTVYFQMNSLKPEDTAVYYCAAYRIWRPSYYYWGQGTQVTVSS
- polyreactivity (PSR sort gate): high polyreactivity

Sequence: QVQLVESGGGLVQAGGSLRLSCAASGLIYFYAMGWYRQAPGKERELVAAISSSGGRTYYADSVKGRFTISRDNAKNTVYLQMNSLKPEDTAVYYCAVVSSHYIGPGRNGYDYWGQGTQVTVSS
- polyreactivity (PSR sort gate): high polyreactivity

Sequence: QVQLVESGGGLVQAGGSLRLSCAASGLMFRHYAMGWYRPAPGKERELVAAIDYSGGSTYYADSVKGRFTISRDNAKNTVYLQMNCLKPEDTAVYYCNRYHRLRVVPSRFVKYDYWGQGTQVTVSS
- polyreactivity (PSR sort gate): low polyreactivity

Sequence: QVQLVESGGGLVQAGGSLRLSCAASGLNFRKYAMGWYRQAPGKERELVAGISSGGSTYYADSVKGRFTISRDNAKNTVYLQMNSLKPEDTAVYYCAAKALRTMYYWGQGTQVTVSS
- polyreactivity (PSR sort gate): high polyreactivity

Sequence: QVQLVESGGGLVQAGGSLRLSCAASGLNFYYYTMGWYREAPGKERELVATISRSGTSTNYADSVKGRFTISRDNAKNTVYLQMNSLKPEDTAVYYCAAVLRWRDLFSEYYYLGQGTQVTVSS
- polyreactivity (PSR sort gate): high polyreactivity

Sequence: QVQLVESGGGLVQAGGSLRLSCAASGLSFYLYAMGWYRQAPGKERELVAAISSSGSSTYYADSVKGRFTISRDNAKNTVYLQMNSLKPEDTAVYYCNARGTRASRYDYWGQGTQVTVSS
- polyreactivity (PSR sort gate): high polyreactivity

Sequence: QVQLVESGGGLVQAGGSLRLSCAASGLTFAFYAMGWYRQAPGKEREFVARIRTSAITYYADSVKGRFTISRDNAKTTVYLQMNSLKPEDTAVYYCAVSWNKLRDSSLYAYYYWGQGTQVTVSS
- polyreactivity (PSR sort gate): high polyreactivity

Sequence: QVQLVESGGGLVQAGGSLRLSCAASGLTFASYAMGWYRQAPGKERELVAVISASGGSTYYADSVKGRFTISRDNAKNPVYLQMNSLKPEDTAVYYCAARHSLYGYWGQGTLVTVSS
- polyreactivity (PSR sort gate): high polyreactivity

Sequence: QVQLVESGGGLVQAGGSLRLSCAASGLTFAYYAMGWYRQAPGKERELVAAISLSGGSTYYADSVKGRFTISRDNAKNTVYLQMNSLKPEDTAVYYCNKGSYYWWDPGSTYIDDYWGQGTQVTVSS
- polyreactivity (PSR sort gate): low polyreactivity

Sequence: QVQLVESGGGLVQAGGSLRLSCAASGLTFDAYAMGWYRHAPRKERELVAAISWSGGSTYYADSVKGRFTISRDNAKNTVYLQMNSLKPEDTAVYYSNARYAQFRFWGQGTQVTVSS
- polyreactivity (PSR sort gate): high polyreactivity

Sequence: QVQLVESGGGLVQAGGSLRLSCAASGLTFDGNAMGWYRQAPGKERELVATIRSGGGTNYADSVKGRFTISRDNAKNTVYLQMNSLKPEDTAVYYCNADYRSVYSPVQYPGEYYYWGQGTQVTVSS
- polyreactivity (PSR sort gate): low polyreactivity

Sequence: QVQLVESGGGLVQAGGSLRLSCAASGLTFDGNTMGWYRQAPGKERELVAAISFDGGNTYADSVNGRFTISRDNAKNTVYLQMNSLKPEDTAVYYDYWGQGTQVTVSS
- polyreactivity (PSR sort gate): low polyreactivity

Sequence: QVQLVESGGGLVQAGGSLRLSCAASGLTFDKIAMGWYRQAPGKERELVAAISTSGGGTYYADSVKGRFTISRDNPKTTVYLQRNSLKPEDTAVYYCAAKHYYYSPYVRYDPPPGYYWGQGTQVTVSS
- polyreactivity (PSR sort gate): high polyreactivity

Sequence: QVQLVESGGGLVQAGGSLRLSCAASGLTFDKYVMGWYRQAPGKERELVAAITKGGGSTYYADSVKGRFTISRDNAKNTVYLQMNSLKPEDTAVYYCAVTLPLRYWGQGTQVTVSS
- polyreactivity (PSR sort gate): high polyreactivity

Sequence: QVQLVESGGGLVQAGGSLRLSCAASGLTFDPYALGWYRQAPGKERELVATISWSTSSTYYADSVKGRFTISRDNAKNTVYLQMNSLKPEDTAVYYCNAGYIESWFLQWIEYDYWGQGTQVTVSS
- polyreactivity (PSR sort gate): high polyreactivity

Sequence: QVQLVESGGGLVQAGGSLRLSCAASGLTFDPYAMGWYRQAPGKEREFVAAINSDDGSTYYADSVKGRFTISRDNAKNTVYLQMNSLKPEDTAVYYCNADLAHFLWYQYDYWGQGTQVTVSS
- polyreactivity (PSR sort gate): low polyreactivity

Sequence: QVQLVESGGGLVQAGGSLRLSCAASGLTFDPYAMGWYRQAPGKEREFVATITTSGDSTYYADSVKGRFTISRDNAKNTVYLQMNSLKPEDTAVYYCNTQSRTLGWPLDYWGQGTQVTVSS
- polyreactivity (PSR sort gate): high polyreactivity

Sequence: QVQLVESGGGLVQAGGSLRLSCAASGLTFDVYAMGWYRQAPGKERELVAAISSIGGSTYYADSVKGRFTISRDNAKNTVYLQMNSLKPEDTAVYYCAAAISLYSYDYWGQGTQVTVSS
- polyreactivity (PSR sort gate): low polyreactivity

Sequence: QVQLVESGGGLVQAGGSLRLSCAASGLTFDWYAMGWYRQAPGKERELVAAISWNGVSTDYADSVKGRFTISRDNAKNTVYLQMNSLKPEDTAVYYCAADPPWYLYVGFDYWGQGTQVSVSS
- polyreactivity (PSR sort gate): high polyreactivity

Sequence: QVQLVESGGGLVQAGGSLRLSCAASGLTFDWYTKGWSRQAPGKERELVATINSGGSTDYADSVKGRFTISRDNAKNTVYLQLNSLKPEDTAVYYCNAEYGYSGVGDDYWGQGTQVTVSS
- polyreactivity (PSR sort gate): low polyreactivity

Sequence: QVQLVESGGGLVQAGGSLRLSCAASGLTFDYYAMGWYRQAPGKERELVAAITRRGGGTYYADSVKGRFTISRDNAKNTVYLQMNSLTPEDTAVYYCNADRRSWSALHRYDYWGQGTQVTVSS
- polyreactivity (PSR sort gate): high polyreactivity

Sequence: QVQLVESGGGLVQAGGSLRLSCAASGLTFEKYAMGWYRQAPGKERELVAAISQDGGSTYYADSVKGRFTISRDNAKNTVYLQMNSLKPEDTAVYYCAAEDPDSWLPWHLYDYWGQGTQVTVSS
- polyreactivity (PSR sort gate): low polyreactivity

Sequence: QVQLVESGGGLVQAGGSLRLSCAASGLTFEVYAMGWYRQAPGKERELVAAISSGGGSTYYADSVKGRFTISRDNAKNTVYLQMNSLKPEDTAVYYCNAVAKLYYWRYDYWGQGTQVTVSS
- polyreactivity (PSR sort gate): low polyreactivity

Sequence: QVQLVESGGGLVQAGGSLRLSCAASGLTFEVYAMGWYRQAPGKERELVAAISSGGGSTYYADSVKGRFTISRDNGKNTVYLQMNSLKPEDTAVYYCNADALIAAYKYFPYTYRFNYWGQGTQVTVSS
- polyreactivity (PSR sort gate): low polyreactivity

Sequence: QVQLVESGGGLVQAGGSLRLSCAASGLTFEWYAMGWYRQAPGKERELVAAISWNGGSTYYADSVKGRFTISRDNAKNTVYLQMNSLKPEDTAVYYCATSSPRRYYWGQGTQVTVSS
- polyreactivity (PSR sort gate): high polyreactivity

Sequence: QVQLVESGGGLVQAGGSLRLSCAASGLTFEWYTMGWYRQAHGKEREMVAVITVSGSSTYYADSVKGRFTISRDNAKNTVYLQMNSLKPEDTAVYYCNADWSFYSYTLYDYWGQGSQVTVSS
- polyreactivity (PSR sort gate): low polyreactivity

Sequence: QVQLVESGGGLVQAGGSLRLSCAASGLTFEYYDMGWYRQAPGKERELVAAITGSDDSTYADSVKGRFTISRDNAKNTVYLQMNSLKPEDTAVYYCAASYRAWSGNYWGQGTQVTVSS
- polyreactivity (PSR sort gate): high polyreactivity

Sequence: QVQLVESGGGLVQAGGSLRLSCAASGLTFFRNAMGWYREATGKERELVATITSTSSTNYADSVKGRFTISRDNAKNSVYLQMNSLIPEDTAVYYCAARTVGRKAGFDYWGQGTQVTVSS
- polyreactivity (PSR sort gate): high polyreactivity
